Consider 16 molecules from patent publication US20220356229A1.

The labels stand for the following.
B1: antibody 499 (antibody, V domains shown)
VH: EVQLVESGGGLVKPGGSLRLSCAASGFTFSSYSMNWVRQAPGKGLEWVSSISSSSSYIYYADSVKGRFTISRDNAKNSLYLQMNSLRAEDTAVYYCARAPAGIVVGPDYWGQGTLVTVSS
VL: NFMLTQPHSVSESPGKTVTISCTGSSGSIASNYVQWYQQRPGSAPTTVIFEDNQRPSGVPDRFSGSIDSSSNSASLTISGLKTEDEADYYCQSYHSSNPHVVFGGGTKLTVL
B2: antibody 464 (antibody, V domains shown)
VH: QVQLVQSGAEVKKPGASVKVSCKVSGYTLTELSMHWVRQAPGKGLEWMGGFDPEDGETIYAQKFQGRVTMTEDTSTDTAYMELSSLRSEDTAVYYCATARAFGVANWFDPWGQGTLVTVSS
VL: QSVLTQPPSASGTPGQRVTISCSGSSSNIGSNYVYWYQQLPGTAPKLLIYRNNQRPSGVPDRFSGSKSGTSASLAISGLRSEDEADYYCAAWDDSLSGLYVFGTGTKVTVL
B3: antibody 495 (antibody, V domains shown)
VH: QITLKESGPTLVKPTQTLTLTCTFSGFSLSTSGVGVGWIRQPPGKALEWLALIYWDDDKRYSPSLKSRLTITKDTSKNQVVLIMTNMDPVDTATYYCAHRDSSSWFDLDAFDIWGQGTMVIVSS
VL: QSVLTQPPSVSEAPRQRVTISCSGSSSNIGNNAVNWYQQLPGKAPKLLIYYDDLLPSGVSDRFSGSKSGTSASLAISGLQSEDEADYYCAAWDDRLNGPVFGGGTKLTVL
B4: antibody 485 (antibody, V domains shown)
VH: QVQLQESGPGLVKPSGTLSLTCAVSGASISSSNWWSWVRQPPGKGLEWIGEIYHSGSTNYNPSLKSRVTISVDKSKNQFSLKLSSVTAADTAVYYCARRSYYGSGSYYPFDYWGQGTLVTVSS
VL: QSALTQPASVSGSPGQSITISCTGTSSDVGSYNLVSWYQQHPGKAPKLMIYEGRKRPSGVSNRFSGSKSGNTASLTISGLQAEDEADYYCCSYAGSSTYVFGTGTKVTVL
B5: antibody 270 (antibody, V domains shown)
VH: QVQLVQSGAEVKRPGTSVKVSCKTSGYTFTDHFIHWVRQAPGRRLEWMGWINPNSGGTNYAQNFQGRVTMTRDTSITTAYMDLTRLTSDDTAIYYCAREAAYGSGNLNWFDPWGQGTRVTVSS
VL: NFMLTQPHSVSESPGKTVTISCTGSSGSIAANYVHWYQQRPGSAPRTVIYEDNQRPSGVPDRFSGSIDSSSNSASLTISGLKTEDEADYYCQSYDGDSWVFGGGTKLTVL
B6: antibody 267 (antibody, V domains shown)
VH: EVHLVQSGAEMKKPGATVKISCKVSGNTFIDHYIQWVQQAPGKGFEWMGLVDPEDGETIYAEKFQGRVTITADTSRDTAYMELSSLKSEDTAVYYCGTHGDYLDYWGQGTLVTVSS
VL: FYELTQPSSVSVSPGQTALITCSGDVVAKKYARWFQQKAGQAPVLVIYKDTERPSGIPERISGSSSGTTVTLTISGAQVEDEADYYCYSATDNNLVFGGGTKVTVL
B7: antibody 259 (antibody, V domains shown)
VH: EVQLVQSGAEVKKPGATVKISCKVSGYTFTDYYMHWVQQAPGKGLEWMGLVDPEDGETIYAEKFQGRVTITADTSTDTAYMELSSLRSEDTAVYYCATDLLSWKLYCSGGSCPQMDVWGQGTTVTVSS
VL: DIQMTQSPSSLSASVGDRVTITCRASQGIRNDLGWYQQKPGKAPKRLIYAASSLQSGVPSRFSGSGSGTEFTLTISSLQPEDFATYYCLQHNSYPQTFGQGTKLEIK
B8: antibody 269 (antibody, V domains shown)
VH: QLQLQESGPGLVKPSETLSLTCTVSGGSISSSSYYWGWIRQPPGKGLEWIGNIYYSGSTYYNPSLKSRVTISVDTSKNQFSLKLSSVTAADTAVYYCAGEELDIVATIYSSRYYYYGMDVWGQGTTVTVSS
VL: QSALTQPASVSGSPGQSITISCTGTSSDVGGYNYVSWYQQHPGKAPKLMIYEVSNRPSGVSNRFSGSKSGNTASLTISGLQAEDEADYYCSSYTSTSTLVFGGGTKLTVL
B9: anti-SARS-CoV-2 antibody 493 (antibody, V domains shown)
VH: EVQLVESGGGLIQPGRSLRLSCAASGFTVSITYMSWVRQAPGKGLEWVSLIYSGGSSYYADSVKGRFTISRDNSKNTLYLQMNSLRAEDTAVYYCATTMVRGVIISYYYGMDVWGQGTTVTVSS
VL: B8 VL with T96S
B10: Antibody 390 (antibody, V domains shown)
VH: B9 VH with R16G, I31S, T32N, L50I, S57T, T90S, Y94S, V103L
VL: B8 VL with T96S
B11: Antibody 413 (antibody, V domains shown)
VH: EVQLVESGGGLIQPGGSLRLSCAASGFTVSGNYMNWVRQAPGKGLEWVSVIYSGGSTYYADSVKGRFTISRANSKNTLYLQMNSLRAEDTAVYYCASTSLVRGLIILYYYGMDVWGQGTTVTVSS
VL: B8 VL with T96S
B12: Antibody 389 (antibody, V domains shown)
VH: QVQLVESGGGVVQPGRSLRLSCAASGFTFSSYAMHWVRQAPGKGLEWVAVISYDGSNKYYADSVKGRFTISRDNSKNTLYLQMNSLRAEDTAVYYCASQGRMYVRGVDYGVYWGQGTLVTVSS
VL: NFMLTQPHSVSESPGKTVTISCTGSSGSIASNYVQWYQQRPGSAPTTVIYEDNQRPSGVPDRFSGSIDSSSNSASLTISGLKTEDEADYYCQSYDSSKISHAVFGGGTQLTVL
B13: anti-SARS-CoV-2 antibody 318 (antibody, V domains shown)
VH: QVQLVESGGGVVPPGRSLSLPCAASGFSFSAYAMHWLRQAPGKGLEWVAVISYDGTVKYVADSVRGRFTISRDNSNNTLYLQMTSLRSDDTAVYYCARDLGALAAAPTVYFVHWGQGTLVTVSS
VL: SYVLTQPPSVSVAPGKTATITCAGEDIGRKSVHWYQQKPGQAPVLVIFYYSDRPSGIPDRFSGSVSGNTATLTIGRVEAGDEADYFCQVWDRTTNHVIFGGGTKVTVL
B14: anti-SARS-CoV-2 antibody 316 (antibody, V domains shown)
VH: QVHLVESGGGVVQPGRSLRLSCAASGFTLTAYAMHWVRQAPGKRLEWVALISYDGSVKKYADSVKGRITVSGDTSTNTLHLQMNSLRADDTAVYYCVRGGVSGPNSFDLWGQGTMVTVSS
VL: DVVMTQSPLSLPVTLGQPASMSCRSSQSLEYSDGNTYVNWFHQRPGQSPRRLIYKVSYRDSGVPDRFSGSGSGTDFTLQISRVEAEDVGIYYCMQGTHWPVTFGQGTKVEIK
B15: anti-SARS-CoV-2 antibody 319 (antibody, V domains shown)
VH: QVQLVESGGGVVQPGRSLRLSCAASGFNLSNYAMHWVRQASGKGLEWVSLISYDGSIKYYTDSVKGRFTVSGDNSKNTLFLQMNSLRPDDSALYYCVRGGVSGPNSFDMWGQGTTVTVSS
VL: B14 VL with M21I, E30V, H42Q, K55Q, Y58I, D60A, T77A, Q79K, I90V
B16: anti-SARS-CoV-2 antibody 315 (antibody, V domains shown)
VH: QVQLVQSGSELKKPGASVKLSCQASGYSFTNHAMNWVRQAPGQGLEWMGWINTNTGNPTYAQGFTGRFVFSLDTSVSTTYLHISSLKAEDTAVYYCARASARPGVATNLDFWGQGTLVVVSS
VL: DIQMTQSPSSLSASVGDRVTITCRASQNIDNYLNWYQQKPGKAPKLLIYAASRLHSGVPSRFSGSGSGTDFTLIISSLQPEDLATYYCQQSYSNPLTFGPGTKVDIR

Changes are numbered by the printed parent chain. “And” between values parts separate entries of the source, which are not always exact repeats. Identical values can stand only once.

In the first assay the target is SARS-CoV-2 Spike protein, wild type, full length (SARS-CoV-2), P0DTC2.
Assay: not given
The conditions noted are these: remark: other sources report otherwise.
Turning to B1, the binding signal, fold over isotype control (fold over isotype) was 1120 and 386 and 432. Still for that read-out and setting: with B2 the figure was 1.27 and 0.99 and 1.04.

As for B3, the binding signal, fold over isotype control (fold over isotype) is 1090 and 384 and 530.

As to B4, the binding signal, fold over isotype control (fold over isotype) was 510.

In a further assay the target is T1, SARS-CoV-2 Spike (S) protein, wild type, full length (SARS-CoV-2), P0DTC2.
Assay: not given
The settings on record: remark: other sources report otherwise.
Turning to B5, the bead binding signal (fold over isotype) (fold over isotype) stood at 305. The same measure, in the same setting: with B6 the figure was 312; with B7, 275; with B8, 480 and 191 and 188.

A further assay addresses SARS-CoV-2 Spike (S) protein, wild type (SARS-CoV-2), P0DTC2. As to the kind of experiment: HT-SPR Carterra LSA; mAb coupled to chip, Spike in solution; 1:1 Langmuir fit. The settings on record: remark: other sources report otherwise.
By kon is commonly meant the second-order rate constant of association. For B9, the kon amounted to 75000 M⁻¹ s⁻¹.

The next assay addresses SARS-CoV-2 Spike (S) protein, wild type, full length, expressed on the surface of transiently transfected CHO cells (SARS-CoV-2), P0DTC2.
Assay: not given
The settings on record: remark: other sources report otherwise.
As to B10, the MFI fold over isotype control (fold over isotype) was 0.73. The same measure, in the same setting: with B11 the figure was 1.11. Still for that read-out and setting: the value for B12 was 0.72.

In the next assay the target is T1, SARS-CoV-2 Spike (S) protein, wild ….
Assay: not given
The settings on record: remark: other sources report otherwise. The source holds these as a separate data set.
As for B1, the median fluorescence, fold over isotype control (fold over isotype) is 0.9.

With B3, the median fluorescence, fold over isotype control (fold over isotype) was 0.83.

For the next assay, the target named is full length Spike of WIV1 (WIV1).
Assay: not given
Settings: not given
In the case of B13, the fold over isotype control (median fluorescence) (fold over isotype) is 291 and 166. Take B14: the fold over isotype control (median fluorescence) (fold over isotype) was found to be 93.8. For B15, the fold over isotype control (median fluorescence) (fold over isotype) worked out at 96.2.

In the case of B16, the fold over isotype control (median fluorescence) (fold over isotype) amounted to 1.09.
